Data taken from the supplement of paper PMC9732359.
± gives the uncertainty stated by the source.

Assay: protein stability index of a GFP-peptide fusion (yeast GPS) (PSI 1-4); higher = more stable; sorted into four equal gates, so the index is relative within each strain
How it was run: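 Tiled yeast protein peptides of 17 residues were each joined downstream of GFP, on plasmids that also express Cherry. The pooled library was maintained in yeast, and mid-log cultures in leucine-free medium were sorted into four equal gates on the GFP/Cherry ratio. Plasmids from every gate were amplified by PCR and sequenced on Illumina, with barcodes linking reads to strains. The protein stability index of a peptide is its gate-number-weighted read frequency summed over the gates.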

Row | Sequence | protein stability index (doa10∆) | protein stability index (pdr5∆) | protein stability index (san1∆) | protein stability index (ubr1∆)
1 | IDEAHRIKNEQSALSQI [ISW2] | 2.6 ± 0.1 | 2.17 ± 0.091 | 1.67 ± 0.089 | 3 ± 0.069
2 | LEDIYTSAHEAIRADPA [RPL5] | 3.04 ± 0.066 | 2.98 ± 0.082 | 3.13 ± 0.072 | 3.19 ± 0.051
3 | PSNSTTTLHGPGFQLPN [SRB8] | 3 ± 0.1 | 2.85 ± 0.096 | 2.71 ± 0.066 | 2.91 ± 0.058
4 | LLEPPAKELQGIDPDET [RPO31] | 3.19 ± 0.15 | 3.11 ± 0.14 | 3.31 ± 0.082 | 3.18 ± 0.12
5 | DDDEIVMPVPNVRSSVL [SKP1] | 2.42 ± 0.053 | 2.25 ± 0.058 | 2.45 ± 0.062 | 2.48 ± 0.051
6 | IASLERELILAKKQNYK [YCG1] | 2.6 ± 0.07 | 3.07 ± 0.06 | 2.14 ± 0.084 | 2.42 ± 0.041
7 | LDEMELHPYNSRGLFEK [YDL116W/NUP84] | 3.23 ± 0.094 | 3.04 ± 0.1 | 2.86 ± 0.076 | 3.22 ± 0.063
8 | AAPAAAAAEIADEPVKA [FAS2] | 2.55 ± 0.063 | 2.74 ± 0.067 | 2.56 ± 0.078 | 2.53 ± 0.045
9 | NGDKMPLKFKLGPLSYQ [YJR042W/NUP85] | 2.94 ± 0.12 | 3.09 ± 0.096 | 3.02 ± 0.096 | 3.27 ± 0.12
10 | QIEGPFLIIVPKSTLDN [ISW2] | 2.88 ± 0.13 | 2.12 ± 0.1 | 2.17 ± 0.088 | 1.75 ± 0.097
11 | AHLYMLEPSGSYWGYKG [PRE10] | 1.66 ± 0.069 | 1.7 ± 0.13 | 2.06 ± 0.21 | 1.84 ± 0.082
12 | KIVFILDSDSENDLSFA [RRI2] | 2.52 ± 0.059 | 2.61 ± 0.059 | 2.09 ± 0.12 | 2.59 ± 0.047
13 | QQTAKKLIPKLYRYRFD [ECM29] | 2.24 ± 0.13 | 2.35 ± 0.1 | 2.24 ± 0.14 | 1.21 ± 0.087
14 | DMLEHINLAMNESSLAL [SRB4] | 1.49 ± 0.094 | 1.28 ± 0.11 | 1.25 ± 0.15 | 1.52 ± 0.092
15 | GRGTLFVRGDSKIFRFQ [RPL24A] | 1.58 ± 0.05 | 1.74 ± 0.076 | 1.95 ± 0.087 | 2.21 ± 0.065
16 | ATSSTNANAGLFNKPPS [YOR098C/NUP1] | 2.86 ± 0.053 | 3.06 ± 0.073 | 3.05 ± 0.079 | 3.3 ± 0.058
17 | MMVNISVLISIPLDNYD [PCI8] | 1.43 ± 0.038 | 1.42 ± 0.044 | 1.72 ± 0.065 | 1.41 ± 0.037
18 | SLLLTNVIITGSTSLIE [ARP7] | 1.54 ± 0.033 | 1.6 ± 0.034 | 1.66 ± 0.051 | 1.39 ± 0.028
19 | FKFSGTVSSDVFKLNPS [YLR335W/NUP2] | 3 ± 0.29 |  |  | 
20 | YINGKATALANLRKSRG [RPO31] | 3 ± 0.067 | 3.13 ± 0.075 | 2.81 ± 0.064 | 3 ± 0.067
21 | RQNRNQEIFDANVQRLK [RPL13A] | 3.15 ± 0.078 | 3.19 ± 0.085 | 3.19 ± 0.055 | 3.4 ± 0.055
22 | QNSKEKNGLGLNFSTTA [MED2] | 2.9 ± 0.11 | 3.13 ± 0.064 | 2.94 ± 0.056 | 2.99 ± 0.089
23 | EEARRKHVSGKILGFVY [RPS22A] | 2.82 ± 0.2 | 2.67 ± 0.18 | 2.97 ± 0.16 | 2.9 ± 0.097
24 | PVVQVGIFIKILNDSLI [IRR1] | 1.5 ± 0.052 | 1.49 ± 0.046 | 1.86 ± 0.067 | 1.97 ± 0.038
25 | ENEISSLLAMHKHNIMK [CDC53] | 2.92 ± 0.079 | 2.99 ± 0.059 | 3.02 ± 0.052 | 3.07 ± 0.039
26 | LLVNPDIDLETYSFIDN [YML103C/NUP188] | 2.79 ± 0.059 | 2.6 ± 0.048 | 2.66 ± 0.056 | 2.6 ± 0.038

Row | Sequence | protein stability index (doa10∆) | protein stability index (pdr5∆) | protein stability index (san1∆) | protein stability index (ubr1∆)
27 | YNVENQQYVAAGDLRAL [FAS1] | 2.81 ± 0.11 | 2.83 ± 0.087 | 2.82 ± 0.13 | 2.85 ± 0.13
28 | NLRLKILTIIEEYKKSL [GRR1] | 1.65 ± 0.068 | 1.6 ± 0.055 | 1.86 ± 0.083 | 1.61 ± 0.07
29 | GALKGASDGGLYVPHSE [RPL5] | 1.91 ± 0.083 | 1.88 ± 0.073 | 2.83 ± 0.088 | 2.67 ± 0.052
30 | SDEEENNNNKSINKNNK [SSN2] | 2.94 ± 0.07 | 3.02 ± 0.079 | 2.72 ± 0.065 | 3.07 ± 0.08
31 | VELPYGAHGYSGFYTFS [PRE1] | 2.92 ± 0.17 | 2.32 ± 0.17 | 2.9 ± 0.13 | 2.83 ± 0.095
32 | KSDDDDHTVDEIDHVEY [SRB8] | 2.45 ± 0.069 | 2.46 ± 0.08 | 2.98 ± 0.1 | 2.91 ± 0.048
33 | SVLYQLSTSAFMEIVLE [YML031W/NDC1] | 2.17 ± 0.047 | 2.07 ± 0.055 | 2.07 ± 0.068 | 2.67 ± 0.058
34 | KFHKREVVEAVTVVDTP [RPL3] | 1.44 ± 0.075 | 1.55 ± 0.066 | 1.63 ± 0.18 | 1.45 ± 0.069
35 | FLKLYVLVKWTRTIKQN [RGR1] | 1.41 ± 0.11 | 1.85 ± 0.14 | 2.38 ± 0.17 | 1.15 ± 0.091
36 | YFSNKTSTGIIRCHRED [POP5] | 2.98 ± 0.17 | 2.68 ± 0.1 | 2.62 ± 0.081 | 2.06 ± 0.059
37 | LHKFLTKWGLINYQVDS [SWI3] | 2.46 ± 0.17 | 2.71 ± 0.12 | 2.03 ± 0.078 | 2.12 ± 0.072
38 | NFEKPKNSSQLLNEWSH [RPN5] | 2.83 ± 0.087 | 3.11 ± 0.078 | 2.88 ± 0.063 | 3.12 ± 0.087
39 | RLKVFEGIPPPYDKKKR [RPL16A] | 2.99 ± 0.087 | 2.9 ± 0.094 | 3.05 ± 0.065 | 2.97 ± 0.08
40 | GLNSDAEEVRNFALTTL [ECM29] | 2.84 ± 0.14 | 3.13 ± 0.29 | 1.38 ± 0.098 | 1.62 ± 0.11
41 | DIDGIMDNPRKLSKILR [SNU114] | 3.01 ± 0.074 | 2.96 ± 0.084 | 2.94 ± 0.058 | 2.96 ± 0.067
42 | QKDQDGRIPLHWSVSFQ [NAS6] | 3.29 ± 0.093 | 3.33 ± 0.079 | 3 ± 0.13 | 3.06 ± 0.053
43 | MPQSFTSIARIGDYILK [QCR7] | 3.35 ± 0.2 | 3.33 ± 0.12 | 3.04 ± 0.15 | 3.1 ± 0.062
44 | FFAYFIGWCKEDPKRRA [YJL039C/NUP192] | 2.15 ± 0.15 | 2.03 ± 0.078 | 2.61 ± 0.057 | 3.21 ± 0.066
45 | KQLQQPKSSPLKKNNYN [SIR4] | 3.03 ± 0.089 | 2.98 ± 0.068 | 3.1 ± 0.039 | 3.07 ± 0.039
46 | SEGSGSSLVQKGLETID [RPC53] | 3.35 ± 0.16 | 3.14 ± 0.14 |  | 3.08 ± 0.063
47 | IQLNGGSISEKVDWARE [RPL3] | 2.66 ± 0.29 | 2.96 ± 0.12 | 2.88 ± 0.12 | 
48 | SNQAVGQTWNFPEVFQV [SRB8] | 3.11 ± 0.21 | 3.36 ± 0.2 | 3.11 ± 0.14 | 
49 | SEETQFKYVEDRFPLKL [ITC1] | 3.47 ± 0.13 | 3.09 ± 0.13 | 3.27 ± 0.09 | 3.01 ± 0.14
50 | KNINIGKHSQEQNSSSA [SIR4] | 3 ± 0.072 | 3.13 ± 0.082 | 3.29 ± 0.1 | 3.25 ± 0.057
51 | KANIFQVIKNEVCAKMP [SSN2] | 2.7 ± 0.14 | 2.27 ± 0.084 | 1.4 ± 0.21 | 1.84 ± 0.09
52 | LKLPADATTWRYSMSEQ [IRR1] | 2.68 ± 0.071 | 2.65 ± 0.058 | 2.69 ± 0.065 | 2.5 ± 0.059
